The experiment addresses OX40-6His Protein-196AAs-21.82 kDa (recombinant canine OX40) (canine). Kind of experiment: phage ELISA, OX-40 coated (control). For orientation: In an ELISA, binding on a coated surface is turned into a signal by an enzyme label.

Chain of OX40-6His Protein-196AAs-21.82 kDa (recombinant canine OX40) (canine) (chain, as listed by the source limits assumed): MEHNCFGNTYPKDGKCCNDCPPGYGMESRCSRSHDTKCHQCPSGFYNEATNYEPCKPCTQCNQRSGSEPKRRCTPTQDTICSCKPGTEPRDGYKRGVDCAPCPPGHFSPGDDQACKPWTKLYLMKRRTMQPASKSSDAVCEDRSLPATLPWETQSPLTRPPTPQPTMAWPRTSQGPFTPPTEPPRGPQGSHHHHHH

Take M13KO7: the ELISA signal, Coating: OX-40 was determined as 0.35.

(Values after patent US20220332837A1.)
